Measurements: patent US20250270301A1 (GEN2 NEUROSCIENCE, published 2025)

What was measured:
[1] = target: T1, full length recombinant human 2N4R tau (human, UniProt P10636 1-758); assay: SPR SCK, IgG on Protein A, tau in flow
T1 construct: bought from rPeptide; pHrodo Red maleimide-labelled where it stands in uptake assays; also called tau1-441; full length tau
Protocol: 21.5 Assessment of antibody binding to tau (Biacore SCK analysis): Binding of anti-tau hIgG1 to full length recombinant 2N4R tau (Rpeptide; SEQ ID NO: 2) was assessed using the Biacore T200 (GE Healthcare, Chicago, IL, USA) running Biacore T200 Evaluation Software V2.0.1. hIgG1 were immobilised on a Protein A capture sensor chip in running buffer (HBS-EP+ buffer containing 1 mg/mL BSA) at 25° C., captured to ˜50 RU at 10 μL/min. For single-cycle kinetics experiments, recombinant 2N4R tau was flowed at concentrations ranging from 1.25 nM to 10 nM (2-fold dilutions) with an association time of 60 s and a dissociation time of 200 s. Curves were compared to a reference cell that was mock immobilized (no antibody present).

[2] = target: T2, Bovine serum albumin (bovine, UniProt P02769 25-607); assay: ELISA on 1% BSA, HEK supernatant, anti-human IgG-HRP, n=1
T2 construct: also called BSA
Protocol: FIG. 7. A panel of humanised anti-tau IgG bind to full length recombinant 2N4R tau in an ELISA format. Supernatants from HEK cells transiently transfected with each IgG clone were tested at 1:100 for binding to full length recombinant 2N4R tau (solid bars). […] Binding of anti-tau hIgG1 was detected using an HRP-conjugated anti-human secondary antibody and data are shown from a representative experiment (n=1 replicate).
Antigen was removed from wells and the plates were then blocked for 1 hour at RT with 5% dried milk in 1×TBS. Blocking solution was removed, HEK293 cell supernatant (1:100 in 1% BSA/1×TBS) was added to relevant wells, and plates were incubated for 1 hour at RT with gentle shaking. Plates were then washed four times with TBS/0.1% Tween (TBST). Goat anti-human IgG-HRP antibody (Thermo Fisher Scientific, Waltham, MA, USA), diluted 1:2000 in 5% milk/TBS, was added to each well and plates were incubated for 1 hour at RT with gentle shaking before being washed four times with TBST. 3,3′,5,5′-tetramethylbenzidine (TMB) ELISA solution was added to each well and plates were incubated for 15 mins at RT. An equal volume of 1 M sulfuric acid was added to each well and OD was measured at 450 nm.

T1 sequence (P10636 other isoform, or with tags, fused parts or gaps limits assumed): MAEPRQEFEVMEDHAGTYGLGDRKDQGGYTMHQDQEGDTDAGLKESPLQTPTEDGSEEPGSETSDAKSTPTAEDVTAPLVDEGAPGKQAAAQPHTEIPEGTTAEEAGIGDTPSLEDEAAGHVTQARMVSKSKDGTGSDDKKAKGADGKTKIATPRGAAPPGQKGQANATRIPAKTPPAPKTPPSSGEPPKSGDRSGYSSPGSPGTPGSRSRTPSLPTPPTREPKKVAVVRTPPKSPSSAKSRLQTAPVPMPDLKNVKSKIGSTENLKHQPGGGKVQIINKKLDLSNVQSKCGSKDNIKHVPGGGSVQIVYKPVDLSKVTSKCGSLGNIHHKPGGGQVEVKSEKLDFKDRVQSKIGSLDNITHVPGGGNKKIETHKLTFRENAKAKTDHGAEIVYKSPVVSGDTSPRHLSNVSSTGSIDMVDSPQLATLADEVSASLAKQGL
T2 sequence (P02769 25-607 limits assumed): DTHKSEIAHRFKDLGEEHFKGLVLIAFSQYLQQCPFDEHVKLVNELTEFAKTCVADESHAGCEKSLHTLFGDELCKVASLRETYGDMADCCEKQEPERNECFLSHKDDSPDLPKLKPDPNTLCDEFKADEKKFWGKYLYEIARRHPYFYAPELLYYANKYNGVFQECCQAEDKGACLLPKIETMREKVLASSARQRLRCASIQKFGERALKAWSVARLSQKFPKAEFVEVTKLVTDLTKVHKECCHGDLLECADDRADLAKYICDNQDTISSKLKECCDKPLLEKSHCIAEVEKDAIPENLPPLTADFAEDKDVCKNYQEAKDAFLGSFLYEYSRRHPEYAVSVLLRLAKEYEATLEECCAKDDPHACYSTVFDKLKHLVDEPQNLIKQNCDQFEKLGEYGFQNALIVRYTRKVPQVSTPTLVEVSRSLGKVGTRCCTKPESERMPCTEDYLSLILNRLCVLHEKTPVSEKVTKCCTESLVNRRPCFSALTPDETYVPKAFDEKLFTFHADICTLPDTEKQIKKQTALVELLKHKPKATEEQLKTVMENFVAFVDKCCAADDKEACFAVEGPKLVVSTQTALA

B1: #44 VH5VK1 humanised hIgG1 (antibody, V domains shown)
VH: QVQLQESGPGLVKPSETLSLTCTVSGIDLSSYAMAWVRQAPGKGLEWIGCIDRRGGTFYASWVKGRFTISRDNSKNTLDLQMTSLTAEDTATYYCARDSGAFDPWGQGTLVTVSS
VL: QIVMTQSPSSLSASVGDRVTITCQASQSVYDNYLAWYQQKPGQPPKLLIHAASNLASRVPSRFKGSGSGTEFTLTISSLQCDDFATYYCLGEFSCTTTDCNVFGGGTEVVIK
notes: also called VH5Vκ1
Kd [1]: 8.31 nM
Relative KD (to VH0VK0) [1]: 2.17
koff [1]: 0.187 s⁻¹
kon [1]: 2.25e+07 M⁻¹ s⁻¹
binding result [2]: no binding (tested: supernatant 1:100)

B2: #44 VH1VK2 humanised hIgG1 (antibody, V domains shown)
VH: QSVQESGGGLVKPSETLSLTCTVSGIDLSSYAMAWVRQAPGKGLEWIGCIDRRGGTFYASWVKGRFTISKTSTTVDLKMTSLTAEDTATYFCARDSGAFDPWGQGTLVTVSS
VL: QIVMTQSPSSLSASVGDRVTITCQASQSVYDNYLAWYQQKPGQPPKLLIHAASNLASGVPSRFKGSGSGTEFTLTISSLQPDDFATYYCLGEFSCTTTDCNVFGGGTKVEIK
notes: also called VH1Vκ2
Kd [1]: 4.26 nM
Relative KD (to VH0VK0) [1]: 1.11
koff [1]: 0.0232 s⁻¹
kon [1]: 5.43e+06 M⁻¹ s⁻¹
binding result [2]: no binding (tested: supernatant 1:100)

B3: #44 VH5VK3 humanised hIgG1 (antibody, V domains shown)
VH: QVQLQESGPGLVKPSETLSLTCTVSGIDLSSYAMAWVRQAPGKGLEWIGCIDRRGGTFYASWVKGRFTISRDNSKNTLDLQMTSLTAEDTATYYCARDSGAFDPWGQGTLVTVSS
VL: DIQMTQSPSSLSASVGDRVTITCQASQSVYDNYLAWYQQKPGQPPKLLIHAASNLASGVPSRFKGSGSGTEFTLTISSLQPDDFATYYCLGEFSCTTTDCNVFGGGTKVEIK
notes: also called VH5Vκ3
Kd [1]: 14.2 nM
Relative KD (to VH0VK0) [1]: 3.71
koff [1]: 0.0406 s⁻¹
kon [1]: 2.86e+06 M⁻¹ s⁻¹
binding result [2]: no binding (tested: supernatant 1:100)

B4: #44 VH2VK4 humanised hIgG1 (antibody, V domains shown)
VH: QSVQESGPGLVKPSETLSLTCTVSGIDLSSYAMAWVRQAPGKGLEWIGCIDRRGGTFYASWVKGRFTISKTSTTVDLQMTSLTAEDTATYFCARDSGAFDPWGQGTLVTVSS
VL: DIQMTQSPSSLSASVGDRVTITCQASQSVYDNYLAWYQQKPGQPPKLLIHAASNLASGVPSRFSGSGSGTEFTLTISSLQPDDFATYYCLGEFSCTTTDCNVFGGGTKVEIK
notes: also called VH2Vκ4
Kd [1]: 5.33 nM
Relative KD (to VH0VK0) [1]: 1.39
koff [1]: 0.0195 s⁻¹
kon [1]: 3.66e+06 M⁻¹ s⁻¹
binding result [2]: no binding (tested: supernatant 1:100)

B5: #44 VH1VK1 humanised hIgG1 (antibody, V domains shown)
VH: QSVQESGGGLVKPSETLSLTCTVSGIDLSSYAMAWVRQAPGKGLEWIGCIDRRGGTFYASWVKGRFTISKTSTTVDLKMTSLTAEDTATYFCARDSGAFDPWGQGTLVTVSS
VL: QIVMTQSPSSLSASVGDRVTITCQASQSVYDNYLAWYQQKPGQPPKLLIHAASNLASRVPSRFKGSGSGTEFTLTISSLQCDDFATYYCLGEFSCTTTDCNVFGGGTEVVIK
notes: also called VH1Vκ1
Kd [1]: 3.16 nM
Relative KD (to VH0VK0) [1]: 0.83
koff [1]: 0.0232 s⁻¹
kon [1]: 7.35e+06 M⁻¹ s⁻¹
binding result [2]: no binding (tested: supernatant 1:100)

B6: #44 VH2VK2 humanised hIgG1 (antibody, V domains shown)
VH: QSVQESGPGLVKPSETLSLTCTVSGIDLSSYAMAWVRQAPGKGLEWIGCIDRRGGTFYASWVKGRFTISKTSTTVDLQMTSLTAEDTATYFCARDSGAFDPWGQGTLVTVSS
VL: QIVMTQSPSSLSASVGDRVTITCQASQSVYDNYLAWYQQKPGQPPKLLIHAASNLASGVPSRFKGSGSGTEFTLTISSLQPDDFATYYCLGEFSCTTTDCNVFGGGTKVEIK
notes: also called VH2Vκ2
Kd [1]: 5 nM
Relative KD (to VH0VK0) [1]: 1.31
koff [1]: 0.0182 s⁻¹
kon [1]: 3.63e+06 M⁻¹ s⁻¹
binding result [2]: no binding (tested: supernatant 1:100)

B7: #44 VH5VK4 humanised hIgG1 (antibody, V domains shown)
VH: QVQLQESGPGLVKPSETLSLTCTVSGIDLSSYAMAWVRQAPGKGLEWIGCIDRRGGTFYASWVKGRFTISRDNSKNTLDLQMTSLTAEDTATYYCARDSGAFDPWGQGTLVTVSS
VL: DIQMTQSPSSLSASVGDRVTITCQASQSVYDNYLAWYQQKPGQPPKLLIHAASNLASGVPSRFSGSGSGTEFTLTISSLQPDDFATYYCLGEFSCTTTDCNVFGGGTKVEIK
notes: also called VH5Vκ4
Kd [1]: 9.63 nM
Relative KD (to VH0VK0) [1]: 2.51
koff [1]: 0.0684 s⁻¹
kon [1]: 7.11e+06 M⁻¹ s⁻¹
binding result [2]: no binding (tested: supernatant 1:100)

B8: #44 VH2VK1 humanised hIgG1 (antibody, V domains shown)
VH: QSVQESGPGLVKPSETLSLTCTVSGIDLSSYAMAWVRQAPGKGLEWIGCIDRRGGTFYASWVKGRFTISKTSTTVDLQMTSLTAEDTATYFCARDSGAFDPWGQGTLVTVSS
VL: QIVMTQSPSSLSASVGDRVTITCQASQSVYDNYLAWYQQKPGQPPKLLIHAASNLASRVPSRFKGSGSGTEFTLTISSLQCDDFATYYCLGEFSCTTTDCNVFGGGTEVVIK
notes: also called VH2Vκ1
Kd [1]: 7.94 nM
Relative KD (to VH0VK0) [1]: 2.07
koff [1]: 0.021 s⁻¹
kon [1]: 2.64e+06 M⁻¹ s⁻¹
binding result [2]: no binding (tested: supernatant 1:100)

B9: #44 VH1VK4 humanised hIgG1 (antibody, V domains shown)
VH: QSVQESGGGLVKPSETLSLTCTVSGIDLSSYAMAWVRQAPGKGLEWIGCIDRRGGTFYASWVKGRFTISKTSTTVDLKMTSLTAEDTATYFCARDSGAFDPWGQGTLVTVSS
VL: DIQMTQSPSSLSASVGDRVTITCQASQSVYDNYLAWYQQKPGQPPKLLIHAASNLASGVPSRFSGSGSGTEFTLTISSLQPDDFATYYCLGEFSCTTTDCNVFGGGTKVEIK
notes: also called VH1Vκ4
Kd [1]: 4.15 nM
Relative KD (to VH0VK0) [1]: 1.08
koff [1]: 0.0208 s⁻¹
kon [1]: 5.01e+06 M⁻¹ s⁻¹
binding result [2]: no binding (tested: supernatant 1:100)

B10: #44 VH5VK2 humanised hIgG1 (antibody, V domains shown)
VH: QVQLQESGPGLVKPSETLSLTCTVSGIDLSSYAMAWVRQAPGKGLEWIGCIDRRGGTFYASWVKGRFTISRDNSKNTLDLQMTSLTAEDTATYYCARDSGAFDPWGQGTLVTVSS
VL: QIVMTQSPSSLSASVGDRVTITCQASQSVYDNYLAWYQQKPGQPPKLLIHAASNLASGVPSRFKGSGSGTEFTLTISSLQPDDFATYYCLGEFSCTTTDCNVFGGGTKVEIK
notes: also called VH5Vκ2
Kd [1]: 12.6 nM
Relative KD (to VH0VK0) [1]: 3.29
binding result [2]: no binding (tested: supernatant 1:100)

B11: #44 VH2VK3 humanised hIgG1 (antibody, V domains shown)
VH: QSVQESGPGLVKPSETLSLTCTVSGIDLSSYAMAWVRQAPGKGLEWIGCIDRRGGTFYASWVKGRFTISKTSTTVDLQMTSLTAEDTATYFCARDSGAFDPWGQGTLVTVSS
VL: DIQMTQSPSSLSASVGDRVTITCQASQSVYDNYLAWYQQKPGQPPKLLIHAASNLASGVPSRFKGSGSGTEFTLTISSLQPDDFATYYCLGEFSCTTTDCNVFGGGTKVEIK
notes: also called VH2Vκ3
Kd [1]: 4.52 nM
Relative KD (to VH0VK0) [1]: 1.18
koff [1]: 0.0187 s⁻¹
kon [1]: 4.14e+06 M⁻¹ s⁻¹
binding result [2]: no binding (tested: supernatant 1:100)

B12: #44 VH1VK3 humanised hIgG1 (antibody, V domains shown)
VH: QSVQESGGGLVKPSETLSLTCTVSGIDLSSYAMAWVRQAPGKGLEWIGCIDRRGGTFYASWVKGRFTISKTSTTVDLKMTSLTAEDTATYFCARDSGAFDPWGQGTLVTVSS
VL: DIQMTQSPSSLSASVGDRVTITCQASQSVYDNYLAWYQQKPGQPPKLLIHAASNLASGVPSRFKGSGSGTEFTLTISSLQPDDFATYYCLGEFSCTTTDCNVFGGGTKVEIK
notes: also called VH1Vκ3
Kd [1]: 5 nM
Relative KD (to VH0VK0) [1]: 1.31
koff [1]: 0.0129 s⁻¹
kon [1]: 2.58e+06 M⁻¹ s⁻¹
binding result [2]: no binding (tested: supernatant 1:100)
